Measured values as given in patent US20140335050A1, “METHODS, COMPOSITIONS, AND KITS FOR THE TREATMENT OF CANCER” (The General Hospital Corporation, priority 2011, published 2014).

Columns and labels:
Format in all cases: cell-based, human
[1] = tested on: MU89 melanoma cells; experiment: Tumor cell/T cell co-culture IL-2 ELISA (Melan-A/MART-1 specific TCR Jurkat line J-TCR-M1 as responder)
Description: The assay relies on the use of an antigen-specific responder T cell line. […] The chosen TCR reacts specifically to a Melan-A/MART-1 decapeptide (26[…]35) presented by HLA-A2, with appropriate triggering of T cell activation. We then used a lentiviral vector system for transduction of this specific TCR into the J.RT3-T3.5 T cell line, a Jurkat cell derivative which fails to express endogenous surface TCR through a mutation in its beta chain.
We evaluated several candidate melanoma cell lines for the ability to stimulate the J-TCR-M1 cell line. Levels of Melan-A/MART-1 (determined by intracellular staining and flow cytometry) and corresponding levels of induced IL-2 (determined by coculture with J-TCR-M1 and IL-2 ELISA) were tested for different melanoma cell lines.
The 480 compounds were tested in six parallel 96 well plates. The first two columns (16 wells) of each plate were used for standards (8 wells), untreated controls (4 wells), and positive controls (4 wells). The other ten columns (80 wells) were used for testing compounds in separate wells. A100 μl aliquot containing 5×10^4 MU89 cells was added to wells that contained 0.1 μl of each test drug diluted in 50 μl of RPMI media. The plates were incubated with drug for 72 hours at 37° C. in a humidified incubator with 5% CO2. After 72 hours, each well received 2.5×10^4J-TCR-M1 cells in 50 μl medium, and then incubated a further 24 hours. At the conclusion of the 24 hour co-culture period, each plate was centrifuged to pellet the cells and 100 μl supernatant fluid was collected from each well and plated in a parallel 96 well flat bottom well for IL-2 ELISA assay.
Melanoma cells were treated with hits from the primary screen for three days prior to counting and plating for the coculture assay (cells were washed and resuspended in fresh medium that no longer contained the treatment agents during the co-culture). A100 μl volume of 5×10^5 cells/ml tumor cells were mixed with 50 μl of […] T cells in a 96-well V-bottom plate and incubated overnight (16-24 hours). Plates were centrifuged to pellet the cells and 100 μl of supernatant fluid was removed from each well for cytokine assay. To assess antigen-specific T cell responses, a final concentration of 3.33 μg/ml Melan-A/MART-1 peptide (26[…]35 (A27L from wild type)) was added to the co-culture.
The protocol for evaluation of the cytokine IL-2 was performed using a the BD OptEAI kit, human IL-2 ELISA set from BD Biosciences (San Diego, Calif.) following the manufacturer's recommendations. The absorbance 450 nm was read in a BioRad 3550 plate reader. A standard curve using known concentrations of IL-2 (from 500 to 8 pg/ml) was included in each ELISA plate. IL-2 levels for experimental samples (pg/ml) were calculated from the standard curve.
100 μl of 5×10^5 tumor cells/ml were mixed with 50 μl of T cells (at 5×10^5 cells/ml) in a 96-well V-bottom plate and incubated overnight (16-24 hours). Plates were centrifuged to pellet the cells and 120 μl of supernatant fluid was removed from each well for cytokine assay. To assess antigen-specific T cell responses, 3.33 μg/ml Melan-A/MART-1 peptide was added to the co-culture.
The protocols for evaluation of either IL-2 or IFN-gamma were similar, following the manufacturer's recommendations. A standard curve using known concentrations of each cytokine was included in each ELISA experiment. ELISA plates were coated with capture antibody and then washed with 1×PBS 0.5% Tween-20. Wells were blocked with 1×PBS 1% FBS for 1 hour and rewashed.

[2] = tested on: melanomas and gliomas; experiment: Intracellular staining for Melan-A/MART-1 and gp100, melanomas and gliomas exposed to hits (Table 10); details: in most cell lines; three days (Table 10)
Method: FIG. 7 is a series of graphs showing intracellular staining and flow histograms used to generate data for Table 10. All cells were stained with an antibody to gp100. Thin line represents untreated cells, bold line represents cells treated for three days with 17-AAG (1 μg/ml). Numbers represent geometric mean of flow histograms.
A further orthogonal secondary screen is the measurement of Melan-A/MART-1 and gp100 in additional melanoma cell lines and gliomas in response to the primary hit candidates. […] If the compounds of interest increase antigen levels in multiple melanoma cell lines and two gliomas, the effects of the compounds are clearly not limited to a single melanoma cell type.
As for the primary screen, 17-AAG and aphidicolin, had the largest impact on EGFP stimulation, inducing 3-fold and 5-fold increases respectively. Four additional compounds: damnacanthal, flunarizine, OBAA, and dantrolene stimulated EGFP more than 2-fold. We then tested the ability of the hit compounds to induce antigen increases in a more diverse set of tumors including melanomas and gliomas. […]
(§1) Cells were fixed with 1% formaldehyde, permeabilized with 0.1% saponin, stained with monoclonal antibodies to melanocyte antigens. […] The level of EGFP was determined by flow cytometry of unfixed cells that were washed and resuspended in 1×PBS.

[3] = tested on: Melan-A/MART-1 promoter EGFP reporter cell line; experiment: Melan-A/MART-1 promoter-driven EGFP reporter cell line, secondary screen of hits (FIG. 6); details: over a dose range (FIG. 6)
Description: FIG. 6 is a series of graphs showing EGFP detection of in cells treated with the indicated hits showing ability to upregulate a cell line containing a Melan-A/MART-1 promoter-driven EGFP reporter. Note that the x-axes (drug concentrations) and y-axes (EGFP fluorescent measurement) cover different ranges to best indicate the activities of individual compounds. Data from a single determination, representative of at least three confirmatory experiments, is shown.
The EGFP reporter driven by the Melan-A/MART-1 promoter represents one such orthogonal assay because it evaluates directly the effect of the compounds on Melan-A/MART-1 promoter activity independent of Melan-A/MART-1 protein expression. Compounds passing the other secondary screens, but failing this one, may affect antigen presentation by other mechanisms such as increasing the efficiency of antigen processing, enhancing MHC Class I levels, or by stabilizing the antigen/MHC complex.
As for the primary screen, 17-AAG and aphidicolin, had the largest impact on EGFP stimulation, inducing 3-fold and 5-fold increases respectively. […]
as §1

[4] = tested on: Jurkat T cell lymphoma cells; experiment: Surface antibody staining and flow cytometry (MHC Class I/II)
Method: (§2) Intracellular staining and flow cytometric analyses of cytoplasmic Melan-A/MART-1, and gp100 expression were performed as described previously. Cells were fixed with 1% formaldehyde, permeabilized with 0.1% saponin, stained with monoclonal antibodies to melanocyte antigens. Antibodies were obtained with specificity for: Melan-A/MART-1 from Vector Labs (Burlingame, Calif.); gp100/HMB45 from DakoCytomation (Carpinteria, Calif.) and then visualized with goat anti-mouse FITC-conjugated secondary antibody from Invitrogen (Frederick, Md.). The level of EGFP was determined by flow cytometry of unfixed cells washed and resuspended in 1×PBS. Surface staining of MHC Class I was carried out using the antibody W6/32 on cells harvested with Cell Stripper from MediaTech Inc. (Manassas, Va.) and carried out on ice.
(§3) For surface staining of HLA Class I and II antigens, cells were harvested using CellStripper™ from Mediatech (Manassas, Va.). All staining steps were performed on ice. Following a first incubation with antibody to Class I (W6/32) or Class II (L243) for 30 minutes. Stained cells were washed twice with cold PBS and then stained with a goat anti-mouse FITC secondary antibody to allow for quantitative analysis by flow cytometry. For evaluation of cytoplasmic antigens, including Melan-A/MART-1 and gp100, cells were first fixed in paraformaldehyde and permeabilized with saponin as previously described. Staining for cytoplasmic antigens was carried out at room temperature (22° C.).

[5] = tested on: EBV-19 B cell lymphoma cells; experiment: as above; details: three days, IFN-β 5000 Units/ml, IFN-γ 100 ng/ml
Method: as §2, §3

[6] = tested on: tumor cell lines; experiment: MHC Class I and Class II surface staining, statements over a panel of tumor cell lines; details: HeLa, MCF-7, U2-OS, MU-89, U118, Jurkat, Raji (Table 19)
Method: as §3

[7] = tested on: U-118 MG glioma cell line; experiment: Antibody staining and flow cytometry (intracellular gp100; surface MHC Class I/II)
Method: (§4) Cells were fixed with 1% formaldehyde, permeabilized with 0.1% saponin, stained with monoclonal antibodies to melanocyte antigens. Antibodies were obtained with specificity for: MART-1 from Vector Labs (Burlingame, Calif.); gp100 HMB45 from DakoCytomation (Carpinteria, Calif.) and then visualized with goat anti-mouse FITC-conjugated secondary antibody from Invitrogen (Fredrick, Md.). The level of EGFP was determined by flow cytometry of unfixed cells that were washed and resuspended in 1×PBS.
(§5) Cells were plated at a density of 1×10^5 in 1 ml of medium in a 24-well plate and cultured for varying times as indicated in results. […] After incubation, cells were collected by trypsinization and then evaluated by flow cytometry.
as §2
(§6) Cell were seeded at 1×10^6 cells in a T25 flask with 10 ml of media for the 4 day IFN-beta pre-treatments. Cells were then harvested and plated in 24 well plate at 1×10^5 cells per well in 1 ml of media for 3 day treatments.
as §3

[8] = tested on: MU89 melanoma cell line; experiment: Antibody staining and flow cytometry (intracellular Melan-A/MART-1, gp100, TRP-2; surface MHC Class I/II)
Method: as §4, §5, §2, §6, §3

[9] = tested on: U2-OS osteosarcoma cells; experiment: Surface antibody staining and flow cytometry (MHC Class I/II); details: U2-OS
Method: as §2, §6, §3

[10] = tested on: Raji B cell lymphoma cells; experiment: as above
Method: as §2, §6, §3

[11] = tested on: HeLa cervical carcinoma cells; experiment: as above
Method: as §2, §6, §3

[12] = tested on: MCF-7 breast cancer cells; experiment: as above; details: MCF-7; single agent
Method: as §2, §6, §3

[13] = three days, IFN-β 5000 Units/ml, IFN-γ 100 ng/ml, PU-H71 0.3 mg/ml
[14] = MU89, three days, IFN-β 5000 Units/ml, IFN-γ 100 ng/ml, PU-H71 0.3 mg/ml

C[C@@]1(CO)[C@H](O)CC[C@@]2(C)[C@H]1CC[C@H]1C[C@@H]3C[C@@]12CC[C@]3(O)CO [Aphidicolin]
Fold increase (IL-2 relative to untreated controls), hits from pilot screen ([1]; about 10 μM, 72 hours treatment, then 24 hours co-culture): 2.0 fold
IL-2 stimulation in repeat of the tumor T cell co-culture IL-2 ELISA ([1]; hits re-tested over a wider dose range (FIG. 5)): ~5 fold
Protein increase (Melan-A/MART-1, gp100 intracellular staining) [2]: inducing high levels of protein increases at low concentrations
EGFP stimulation (Melan-A/MART-1 promoter reporter) [3]: 5 fold

B1: IFN-γ: IFN-γ-1b stock solution 100 μg/ml in PBS; SEQ ID NO: 5 (protein)
chain: MQDPYVKEAENLKKYFNAGHSDVADNGTLFLGILKNWKEESDRKIMQSQIVSFYFKLFKNFKDDQSIQKSVETIKEDMNVKFFNSNKKKRDDFEKLTNYSVTDLNVQRKAIHELIQVMAELPPAAETGKRKRSQMLFRGR
modifications: IFN-gamma-1b
L243 (MHC Class II surface staining) ([4]; single agent): 1.1
W6/32 (MHC Class I surface staining) ([4]; single agent): 86.5
MHC Class I, geometric mean of surface staining (W6/32) ([4]; three days, IFN-β 5000 Units/ml, IFN-γ 100 ng/ml, PU-H71 0.3 μg/ml): 87
MHC Class II, geometric mean of surface staining (L2443) [4, 13]: 1
MHC Class II, geometric mean of surface staining (L2443) ([5]; PU-H71 0.3 mg/ml): 118
MHC Class I, geometric mean of surface staining (W6/32) ([5]; PU-H71 0.3): 277
Class I MHC expression over the tumor panel [6]: induce significant increases
Class II MHC expression over the tumor panel [6]: induced significant Class II
MHC Class II, geometric mean of surface staining (L2443) ([7]; Giloma-118, three days, IFN-β 5000 Units/ml, IFN-γ 100 ng/ml, PU-H71 0.3 mg/ml): 40
MHC Class I, geometric mean of surface staining (W6/32) ([7]; Giloma-118, three days, IFN-β 5000 Units/ml, IFN-γ 100 ng/ml, PU-H71 0.3): 137
L243 (MHC Class II surface staining) ([7]; U118, single agent): 65.3
W6/32 (MHC Class I surface staining) ([7]; U118, single agent): 250.5
MHC Class I, geometric mean of surface staining (W6/32) [8, 14]: 213
MHC Class II, geometric mean of surface staining (L2443) [8, 14]: 139
L243 (MHC Class II surface staining) ([8]; MU-89, single agent): 57.6
W6/32 (MHC Class I surface staining) ([8]; MU-89, single agent): 138.0
L243 (MHC Class II surface staining) ([9]; single agent): 87.6
W6/32 (MHC Class I surface staining) ([9]; single agent): 293.2
MHC Class I, geometric mean of surface staining (W6/32) [9, 13]: 284
MHC Class II, geometric mean of surface staining (L2443) [9, 13]: 237
L243 (MHC Class II surface staining) ([10]; single agent): 339.3
W6/32 (MHC Class I surface staining) ([10]; single agent): 117
MHC Class I, geometric mean of surface staining (W6/32) [10, 13]: 117
MHC Class II, geometric mean of surface staining (L2443) [10, 13]: 142
L243 (MHC Class II surface staining) ([11]; HELA, single agent): 86.0
W6/32 (MHC Class I surface staining) ([11]; HELA, single agent): 464.8
MHC Class II, geometric mean of surface staining (L2443) ([11]; HeLa, three days, IFN-β 5000 Units/ml, IFN-γ 100 ng/ml, PU-H71 0.3 mg/ml): 214
MHC Class I, geometric mean of surface staining (W6/32) ([11]; HeLa, three days, IFN-β 5000 Units/ml, IFN-γ 100 ng/ml, PU-H71 0.3): 637
L243 (MHC Class II surface staining) [12]: 59.1
W6/32 (MHC Class I surface staining) [12]: 478.5
